From the RNAGym collection of RNA variant scans (doi:10.1073/pnas.2313332121)

B1: TPR t1 (parent)
chain: GACCAAUCUGCCCUCAGAGCUCGAGAACAUCUUCGGAUGCAGAGGAGGCAGGCUUCGGUGGCGCGAUAGCGCCAACGUCCUCAACCUCCAAUGCAUCCCACCACAUGAUGAUGCCUGAAGAGCCUUGGUUUUUUG

Variants of: B1
Experiment: polymerase ribozyme fitness, log enrichment relative to wild type (log ratio); higher = more active; in vitro selection for triplet polymerase activity
Procedure, shortened: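 The heterodimeric triplet polymerase ribozyme's subunits were each mutagenized into PCR-built libraries and transcribed. Every library was selected once, in triplicate, by annealing with a biotinylated primer, the partner subunit and triplets, incubating frozen at −7 °C, gel-excising extended constructs, capturing on streptavidin beads and running RT-PCR. Input and output libraries were Illumina-sequenced, with genotypes kept only at ≥10 input reads and ≥1 read per output. Fitness, from inverse-variance-weighted replicate averages, is the base-2 logarithm of genotype enrichment over wild-type enrichment.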

| Variant | polymerase ribozyme fitness (log ratio) |
| --- | --- |
| G39A C49G G61A C89U C102G | -7.76 |
| U21A G52C C56A C76U C101U | -3.81 |
| A84U C101A U116G A121U | -0.796 |
| G10U C88G G110C | -5.78 |
| U9A A26C C40U U87C U125G | -5.19 |
| U59C A111C G128C | -3.24 |
| G10U G42U A91C U106A U112A | -0.271 |
| G47A C72G G113U G122A G127U | -4.96 |
| C8U C34A G35U G63U C82U G120A U130A | -4.37 |
| U9A C62U G63A A95C A103G U109A | -7.15 |
| C20A A111G | -3.92 |
| C3G G71U | -2.64 |
| A26G U33G G61A A84C C98U | -5.59 |
| G52U U87A | -1.25 |
| C80A C86U | -3.32 |
| G10U C40G G52C C98U C123U | -2.05 |
| U7G G10A C15G G17A A43C C53G C97U | -4.35 |
| C49U C73U U81G U96C | -4.51 |
| G25U G120A | -3.94 |
| A29U G44A C72U G110A U125A | -5.47 |
| C72A C82G U112G G117A U126C U129G | -5.85 |

| Variant | polymerase ribozyme fitness (log ratio) |
| --- | --- |
| C12A C88U | -0.873 |
| U59A C64U C85A G110U U133C | -2.9 |
| U54C G69A U112C | -0.483 |
| C13G A50C C53G U96G | -3.94 |
| C53A C56G U81G C101G U129C | -2.89 |
| G47A C89A | -4.43 |
| C4G G17U C53U C56A | -3.68 |
| U21C A27G C56A C88A | -4.66 |
| G35U C56U A121G | -4.8 |
| A29U G69C U81G U87G | -3.43 |
| A27C U55C C70U U129G | -4.99 |
| C124G U132A | 2.04 |
| C28A A74C | -4.96 |
| C12U C72A | 0.312 |
| U81A C104U | -0.577 |
| C62A C85A | -2.47 |
| C101A C115A | -1.02 |
| C8U C13G C53G C72G U87A U133C | -2.29 |
| G10C C34U A43U C101G G107C | -7.66 |
| G39A G60U | 0.0117 |
| C34U G60A | -5.21 |

| Variant | polymerase ribozyme fitness (log ratio) |
| --- | --- |
| A46U U54G G69U U78C G117U | -4.42 |
| C34G G36A C49A C86U C124A | -6.09 |
| A16U G61U G135U | -1.98 |
| U14C A27U G44U C49A C94U G117C G127C | -7.98 |
| A6U C13A G36C C123U | 0.00441 |
| A5G G36U G63C A111C A119C | -4.21 |
| G10U C20U A43C A50C C79G C88U A121G | -4.86 |
| G39A G45C G51C G69U U125G | -2.57 |
| G52U A105C | -3.57 |
| U21C U112G | -0.886 |
| G48A U126G | -2.42 |
| A2C G60C | -1.65 |
| C20A G42U G47U C53U G120U | -3.98 |
| C56G C72U | -1.05 |
| U55A C85G C86G U112G G128A | -2.76 |
| G23A G63C C101U A111G | -6.12 |
| C49U C94U | -1.08 |
| U9A C56A G61C G77U G117U | -2.13 |
| U7A U14A A37G G69A | -3.91 |
| C56G C79A A83U A90C C114A | -7.42 |
| G10U G36A | -0.638 |

| Variant | polymerase ribozyme fitness (log ratio) |
| --- | --- |
| G47A G60C | -1.05 |
| G47A G60U | -0.146 |
| C13G A41U G117C | -5.86 |
| G25U C31G U55G G71C C115A A119U G122A | -6.9 |
| A6C C62G G113A | -3.34 |
| C53U C97G | -4.59 |
| U7A C80U C99U C124G | -2.39 |
| A29G C31G U55G C124U | -6.79 |
| G36U A90G | -0.944 |
| A46U C101U A121U | 0.775 |
| C102A G110A | -4.38 |
| G61U G122A | -0.264 |
| A2U A50U C72G | -4.02 |
| G51A U78C | -2.47 |
| C99A G110U | -4.34 |
| C72G C104A | -1.71 |
| C15A A37C C49A C72G | -2.75 |
| U54A U87A | -2.57 |
| C8U A50U G69U | -0.24 |
| C53U G113A | -1.57 |
